Values quoted from earlier work as cited in article doi:10.1101/2021.01.30.427993.

Test system: Glu165
Conditions: not stated ('in the active site')

In the case of Triosephosphate isomerase (TIM), the pKa is given as 3.9.
